The source of these data is patent US20050031645, “Vaccine compositions” (Advanced Microbial Solutions Corporation, published 2005).

This data set concerns the target T1, DtxR (Corynebacterium diphtheriae, UniProt H2I233 SEQ:1-226).
T1 sequence: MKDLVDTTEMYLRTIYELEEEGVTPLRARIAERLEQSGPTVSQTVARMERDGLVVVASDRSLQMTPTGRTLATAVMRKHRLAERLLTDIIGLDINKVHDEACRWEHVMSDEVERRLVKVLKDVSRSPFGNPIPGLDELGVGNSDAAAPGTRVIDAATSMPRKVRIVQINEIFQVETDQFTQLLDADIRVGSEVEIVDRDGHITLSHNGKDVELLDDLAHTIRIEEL
The experiment in a line: EMSA; competed by unlabeled tox DNA, not by nonspecific DNA; 10 mM Tris-OAc pH 7.4, 50 mM KCl, 1 mM EDTA, calf thymus DNA. To be noted: chain copies: 2 (inferred); label: 32P end.

B1: toxO (tox operator) 100 bp fragment (dsDNA)
DNA 1: ATAATTAGGATAGCTTTACCTAATTAT
DNA 2: ATAATTAGGTAAAGCTATCCTAATTAT
In the case of B1, the binding result was “binds”.
